US20180334510A1 (BRANDEIS UNIVERSITY, published 2018)
Changes are numbered by the printed parent chain. Like-named read-outs stand apart in the source and are kept apart here. Blank lines part the entries; values can stand above or below the binder they belong to.

Legend:
[1] = target: T1, Aurora A kinase (human, UniProt O14965 122-403, limits assumed); experiment: yeast display titration of the clone with wild type Aurora A, mean fluorescence
T1 construct: also called AurA; deP AurA
T1 sequence: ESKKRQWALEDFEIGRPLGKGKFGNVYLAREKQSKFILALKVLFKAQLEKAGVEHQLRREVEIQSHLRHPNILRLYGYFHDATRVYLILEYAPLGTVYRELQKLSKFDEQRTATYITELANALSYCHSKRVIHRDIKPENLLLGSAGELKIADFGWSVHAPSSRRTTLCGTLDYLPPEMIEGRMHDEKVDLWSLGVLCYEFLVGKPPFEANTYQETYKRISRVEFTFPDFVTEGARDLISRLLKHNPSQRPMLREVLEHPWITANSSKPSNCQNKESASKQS

[2] = target: T1, Aurora A kinase; experiment: isothermal titration calorimetry with dephosphorylated Aurora A (deP AurA)
[3] = target: T2, Y199K; experiment: yeast display, single point with Y199K Aurora A, mean fluorescence
T2 construct: also called Y199K mutant Aurora A; Y199K Aurora A hotspot mutant
T2 chain: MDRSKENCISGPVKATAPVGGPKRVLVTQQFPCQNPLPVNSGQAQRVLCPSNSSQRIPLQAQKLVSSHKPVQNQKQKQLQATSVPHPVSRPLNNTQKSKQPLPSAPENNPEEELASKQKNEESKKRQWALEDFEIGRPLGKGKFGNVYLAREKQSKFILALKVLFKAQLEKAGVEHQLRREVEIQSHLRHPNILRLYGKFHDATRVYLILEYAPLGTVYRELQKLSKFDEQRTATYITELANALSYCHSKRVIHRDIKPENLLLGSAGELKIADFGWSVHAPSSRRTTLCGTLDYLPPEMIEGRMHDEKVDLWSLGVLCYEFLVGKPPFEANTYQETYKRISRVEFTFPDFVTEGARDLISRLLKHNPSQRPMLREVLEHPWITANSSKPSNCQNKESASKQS

[4] = target: T1, Aurora A kinase; experiment: isothermal titration calorimetry with dephosphorylated Aurora A (deP AurA); remark: listed apart in the source
[5] = target: T3, Y199H; experiment: yeast display, single point with Y199H Aurora A, mean fluorescence
T3 construct: also called Y199H mutant Aurora A; Y199H Aurora A hotspot mutant
T3 chain: T2 chain with K199H

[6] = target: T1, Aurora A kinase; experiment: isothermal titration calorimetry with dephosphorylated Aurora A (deP AurA); remark: listed apart in the source
[7] = target: T1, Aurora A kinase; experiment: as above; remark: listed apart in the source
[8] = target: T1, Aurora A kinase; experiment: isothermal titration calorimetry; Mb60 alone, not the sGFP fusion (FIG. 6C)
[9] = target: T1, Aurora A kinase; experiment: isothermal titration calorimetry with dephosphorylated Aurora A (deP AurA); design: dS: unit not given here
[10] = target: T1, Aurora A kinase; experiment: isothermal titration calorimetry
[11] = target: T1, Aurora A kinase; experiment: method not stated; told in the isothermal titration calorimetry paragraph
[12] = target: T1, Aurora A kinase; experiment: isothermal titration calorimetry with dephosphorylated Aurora A (deP AurA); design: dS: unit not given here; remark: listed apart in the source

- Kd [1]: 6 nM
- Kd [2]: 27.4 nM
- dH [2]: -9.11 kcal/mol
- dS [2]: -16.9 J/mol*K
- n [2]: 0.93
B1: monobody Mb51 (designed binder)
chain: SVSSVPTKLEVVAATPTSLLISWDAKPMSYEPVYYYRITYGETGGNSPVQEFTVPGYYSTATISGLKPGVDYTITVYADSMSSYYYSPISINYRT
notes: Monobody on a fibronectin type III (FN3) scaffold; also called AuroraA_51
- binding result [3]: no binding (tested: 2000 (axis unit not printed))

- Kd [4]: 8.7 nM
- dH [4]: -16.1 kcal/mol
- dS [4]: -71.6 J/mol*K
- n [4]: 1.02
- Kd [1]: 16.7 nM
B2: monobody Mb2 (designed binder)
chain: SVSSVPTKLEVVAATPTSLLISWDAFGHQYEPVYYYRITYGETGGNSPVQEFTVPGYYSTATISGLKPGVDYTITVYAWYVDGSYSSPISINYRT
notes: Monobody on a fibronectin type III (FN3) scaffold; also called AuroraA_2
- binding result [5]: no binding (tested: 2000 (axis unit not printed))

- Kd [6]: 175000 nM
- dH [6]: -24.2 kcal/mol
- dS [6]: -210 J/mol*K
- n [6]: 0.92
- Kd [1]: 81 nM
B3: monobody Mb54 (designed binder)
chain: SVSSVPTKLEVVAATPTSLLISWDAQTYQMYDYVSYYRITYGETGGNSPVQEFTVPGYYSTATISGLKPGVDYTITVYAEGYYSSYSPISINYRT
notes: Monobody on a fibronectin type III (FN3) scaffold; also called AuroraA_54
- binding result [5]: no binding (tested: 2000 (axis unit not printed))

- Kd [7]: 2600 nM
- dH [7]: -13.7 kcal/mol
- dS [7]: -84.9 J/mol*K
- n [7]: 1.06
- Kd [1]: 42 nM
B4: monobody Mb44 (designed binder)
chain: SVSSVPTKLEVVAATPTSLLISWDAPAVTVDFYVITYGETGGYSYPWQEFEVPGSKSTATISGLKPGVDYTITVYADYGQYFYSPISINYRT
notes: Monobody on a fibronectin type III (FN3) scaffold; also called AuroraA_44

- Kd [1]: 25 nM
- Kd [8]: ~1000 nM
- Kd [9]: 1200 nM
- dH [9]: -31.9 kcal/mol
- dS [9]: -334
- n [9]: 0.92
B5: monobody Mb60 (designed binder)
chain: SVSSVPTKLEVVAATPTSLLISWDAPAVTVVHYVITYGETGGNSPVQEFTVPGSKSTATISGLKPGVDYTITVYAIDFYWGSYSPISINYRT
notes: Monobody on a fibronectin type III (FN3) scaffold; also called AuroraA_60
- binding result [3]: no binding (tested: 2000 (axis unit not printed))

- Kd [10]: ~9900 nM
B6: monobody Mb60 fused to supercharged GFP (designed binder)
chain: B5 chain
notes: also called sGFP-Mb60; not shown: supercharged green fluorescent protein

- Kd [11]: 50000 nM
B7: TPX2 (other)
chain: MSQVKSSYSYDAPSDFINFSSLDDEGDTQNIDSWFEEKANLENKL
notes: also called TPX2 polypeptide

- Kd [1]: 60 nM
- Kd [12]: 163 nM
- dH [12]: -10.1 kcal/mol
- dS [12]: -29.1
- n [12]: 0.94
B8: monobody Mb56 (designed binder)
chain: SVSSVPTKLEVVAATPTSLLISWDAMSDWYYWVDYYRITYGETGGNSPVQEFTVPGSYSTATISGLKPGVDYTITVYASDDVWGDYSPISINYRT
notes: Monobody on a fibronectin type III (FN3) scaffold; also called AuroraA_56
- binding result [3]: no binding (tested: 2000 (axis unit not printed))
